T1: cynomolgus monkey IL-4 (cynomolgus monkey, UniProt P79339 25-153)
T1 construct: mature; also called cy IL-4; cyno IL-4
T1 sequence (looked up): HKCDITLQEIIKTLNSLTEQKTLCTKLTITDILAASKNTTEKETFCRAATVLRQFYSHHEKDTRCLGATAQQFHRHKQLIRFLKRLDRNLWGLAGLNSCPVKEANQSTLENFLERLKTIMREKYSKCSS

T2: human IL-4 (human, UniProt P05112 25-153)
T2 sequence (looked up): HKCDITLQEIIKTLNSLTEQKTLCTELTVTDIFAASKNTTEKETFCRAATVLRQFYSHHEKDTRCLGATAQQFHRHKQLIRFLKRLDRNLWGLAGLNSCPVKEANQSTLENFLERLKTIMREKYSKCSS

T3: rat IL-13 (rat, UniProt P42203 19-131, limits assumed)
T3 construct: also called rt IL-13
T3 sequence (looked up): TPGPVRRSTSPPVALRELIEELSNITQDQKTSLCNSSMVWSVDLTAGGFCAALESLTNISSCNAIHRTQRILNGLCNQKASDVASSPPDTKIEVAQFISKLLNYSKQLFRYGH

T4: mouse IL-13 (mouse, UniProt P20109 26-131, limits assumed)
T4 construct: also called mu IL-13
T4 sequence (looked up): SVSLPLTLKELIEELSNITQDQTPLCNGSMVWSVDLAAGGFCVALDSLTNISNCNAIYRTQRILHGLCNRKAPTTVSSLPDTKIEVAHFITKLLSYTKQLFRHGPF

T5: rat IL-33 (rat, UniProt Q66H70 109-264, limits assumed)
T5 construct: also called rat IL-33 WT
T5 sequence (looked up): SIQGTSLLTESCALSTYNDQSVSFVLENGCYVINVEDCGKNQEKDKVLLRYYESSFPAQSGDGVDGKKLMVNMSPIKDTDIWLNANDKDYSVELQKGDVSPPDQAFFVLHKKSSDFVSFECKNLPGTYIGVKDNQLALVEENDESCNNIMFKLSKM

T6: murine IL-33 (mouse, UniProt Q8BVZ5 109-266)
T6 construct: also called mouse IL-33 WT
T6 sequence (looked up): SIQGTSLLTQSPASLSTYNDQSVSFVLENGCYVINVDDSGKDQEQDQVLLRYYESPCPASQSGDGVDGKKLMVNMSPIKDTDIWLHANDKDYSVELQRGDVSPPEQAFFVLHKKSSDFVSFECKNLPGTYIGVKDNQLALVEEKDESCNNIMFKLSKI

T7: mouse IL-4 (mouse, UniProt P07750 23-140)
T7 construct: also called mu IL-4
T7 sequence (looked up): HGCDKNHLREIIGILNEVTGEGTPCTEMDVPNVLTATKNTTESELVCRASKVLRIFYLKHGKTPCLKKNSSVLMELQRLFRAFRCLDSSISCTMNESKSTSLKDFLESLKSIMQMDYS

T8: rat IL-4 (rat, UniProt P20096 25-147, limits assumed)
T8 construct: also called rt IL-4
T8 sequence (looked up): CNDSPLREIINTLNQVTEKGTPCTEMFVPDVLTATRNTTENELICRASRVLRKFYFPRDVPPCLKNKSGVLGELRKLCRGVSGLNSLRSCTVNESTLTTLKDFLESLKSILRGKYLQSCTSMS


Tests used:
cynomolgus monkey IL-13 [1] = biological target: T9, cynomolgus monkey IL-13 (cynomolgus monkey, UniProt Q0PW92 19-132); assay: KinExA, fixed antigen
T9 construct: also called cy IL-13; cyno IL-13; not shown: N-terminal FLAG tag of the Pfizer-made protein
T9 sequence (Q0PW92 entry or part of it limits assumed): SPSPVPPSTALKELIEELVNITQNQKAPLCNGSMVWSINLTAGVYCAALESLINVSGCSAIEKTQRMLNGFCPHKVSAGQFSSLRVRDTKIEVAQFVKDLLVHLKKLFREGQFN

cynomolgus monkey IL-4 = biological target: T1, cynomolgus monkey IL-4; assay: KinExA, fixed antigen
Procedure: Samples were prepared in PBS containing 0.1% sodium azide and 1.0 mg/ml BSA. The fixed antigen assay method was used to determine binding affinity. […] Each trispecific and IL-4 cytokine were equilibrated for at least 72 hours at room temperature, then passed through a flow cell containing Polymethylmethacrylate (PMMA) beads coated with anti-hIL-4 Ab-0002 (Pfizer) that contains the same IL-4 binding domain as the trispecifics. […] Data analysis was performed with KinExA Pro software version 4.3.11 (Sapidyne). […] The ‘drift correction’ fitting option was used when responses varied between replicate injections. Two curves were obtained in independent experiments and analyzed using the ‘n-curve analysis’ tool to obtain global best fit values for the KD and active concentration of IL-4 cytokine. The software reports each best fit value along with a 95% confidence interval.
Samples were prepared in PBS containing 0.1% sodium azide and 1.0 mg/ml BSA. A fixed antigen assay method was used to determine binding affinity.

cynomolgus monkey IL-13 [2] = biological target: T9, cynomolgus monkey IL-13; assay: cell-based or functional assay
human IL-13 = human IL-13 (human, UniProt P35225 35-146); assay: cell-based or functional assay
Chain of human IL-13 (P35225 35-146 limits assumed, form in doubt): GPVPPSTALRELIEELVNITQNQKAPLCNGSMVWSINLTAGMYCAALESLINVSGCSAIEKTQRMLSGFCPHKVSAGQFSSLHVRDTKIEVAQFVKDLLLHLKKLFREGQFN

human IL-4 = biological target: T2, human IL-4; assay: cell-based or functional assay
rat IL-13 = biological target: T3, rat IL-13; assay: SPR (Biacore 8K+), trispecific captured on anti-human Fc on a CM5 chip, 200 nM IL-13 injected for 60 s
Procedure: (§1) All experiments were performed using a Biacore 8K+ instrument (GE HealthCare, Marlborough, MA). Anti-human Fc (Jackson Immunoresearch) or anti-mouse Fc (GE HealthCare, Marlborough, MA) was immobilized on a CM5 sensor chip using a standard amine coupling protocol provided by GE HealthCare. […] The association and dissociation phases were 60 seconds and 300 seconds, respectively. At the end of the dissociation phase, the surface containing anti-human or anti-mouse Fc was regenerated using one 30 second pulse of 3M MgCl₂ followed by one 30 second pulse of 10 mM glycine pH 1.7.

mouse IL-13 = biological target: T4, mouse IL-13; assay: as above
Procedure: as §1

rat IL-33 = biological target: T5, rat IL-33; assay: SPR (Biacore T-200, 37 C, buffer with 3 mM DTT), trispecific captured on Protein A/G on a CM5 chip, 200 nM IL-33 injected for 60 s (concentration from Example 75)
Procedure: (§2) Experiments were done at 37° C. with a collection rate of 10 Hz using HBS-EP+ pH 7.4, containing 3 mM DTT as running and dilution buffer. […] An anti-rat and mouse positive control antibody M36 (Pfizer, L4295010-051) diluted to 10 μgs/mL was captured on flow cell 2 for 60 sec at 10 μLs/min. Flow cell 1 was used as a reference. Binding was evaluated by injecting 200 nM dilutions of each cytokine over all 4 flow cells for 60 sec at 50 μL/min followed by a 300 sec dissociation. The surface was regenerated with a single 60 sec injection of 10 mM Glycine pH 1.5 at 50 μL/min. The data was double referenced and an overlay of the resulting sensorgrams (FIG. 39) was prepared using Biacore T-200 Analysis Software version 3.2.

murine IL-33 = biological target: T6, murine IL-33; assay: as above
Procedure: as §2

mouse IL-4 = biological target: T7, mouse IL-4; assay: SPR (Biacore 8K+), trispecific captured on anti-human Fc on a CM5 chip, 200 nM IL-4 injected for 60 s
Procedure: (§3) All experiments were performed using a Biacore 8K+instrument (GE HealthCare, Marlborough, MA). Anti-human Fc (Jackson Immunoresearch) or anti-mouse Fc (GE HealthCare, Marlborough, MA) was immobilized on a CM5 sensor chip using a standard amine coupling protocol provided by GE HealthCare. […] The association and dissociation phases were 60 seconds and 300 seconds, respectively. At the end of the dissociation phase, the surface containing anti-human or anti-mouse Fc was regenerated using one 30 second pulse of 3M MgCl₂ followed by one 30 second pulse of 10 mM glycine pH 1.7.

rat IL-4 = biological target: T8, rat IL-4; assay: as above
Procedure: as §3

[3] = biological target: T10, biotinylated cynomolgus monkey TSLP (Pfizer) (cynomolgus monkey, UniProt A0A7N9CAT7 29-159, biotinylated (Avi tag by Example 2)); assay: KinExA, fixed antigen format, solution affinity, mean
T10 construct: Antigen of the KinExA fixed antigen assay
T10 sequence (A0A7N9CAT7 entry or part of it): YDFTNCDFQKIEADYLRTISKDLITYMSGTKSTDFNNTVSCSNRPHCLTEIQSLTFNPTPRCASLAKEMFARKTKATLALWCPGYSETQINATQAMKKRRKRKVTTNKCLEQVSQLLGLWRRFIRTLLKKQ
Procedure: (§4) Samples were prepared in PBS containing 0.1% sodium azide and 1.0 mg/ml BSA. A fixed antigen assay method was used to determine binding affinity. […] Data analysis was performed with the KinExA Pro software version 4.3.11 (Sapidyne). […] The ‘drift correction’ option was selected when responses varied between replicate injections. Two curves were obtained in independent experiments and analyzed using the ‘n-curve analysis’ tool to obtain global best fit values for the KD and active concentration of biotinylated TSLP. The software reports each best fit value along with a 95% confidence interval).

[4] = biological target: T11, biotinylated human TSLP (Pfizer) (human, UniProt Q969D9 29-159, biotinylated (Avi tag by Example 2)); assay: as above
T11 construct: Antigen of the KinExA fixed antigen assay
Procedure: as §4

[5] = biological target: recombinant cynomolgus monkey TSLP (Pfizer) (cynomolgus monkey, UniProt A0A7N9CAT7 29-159); assay: cell-based or functional assay
Chain of recombinant cynomolgus monkey TSLP (Pfizer) (A0A7N9CAT7 entry or part of it): as above

| Binder | fold of the human IL-13 affinity value (cynomolgus monkey IL-13 [1]) [fold] | fold weaker than the human IL-4 affinity value (cynomolgus monkey IL-4) [fold] | fold reduced neutralization compared to the human cytokine (monocyte CD23 bioassay) (cynomolgus monkey IL-13 [2]) [fold] | fold IL-13 neutralization activity over dupilumab (monocyte CD23 bioassay) (human IL-13) [fold] | fold lower potency than IL13-0001 (monocyte CD23 bioassay) (human IL-13) [fold] | fold IL-4 neutralization activity over dupilumab (monocyte CD23 bioassay) (human IL-4) [fold] | fold lower potency than mAb IL4-1040 (monocyte CD23 bioassay) (human IL-4) [fold] | binding result (rat IL-13) | binding result (mouse IL-13) | binding result (rat IL-33) | binding result (murine IL-33) | binding result (mouse IL-4) | binding result (rat IL-4) | Kd [3] [nM] | Kd [4] [nM] | IC50, TARC production bioassay, Human Whole Blood (median) [5] [nM] | IC50, TARC production bioassay, Peripheral Blood Monocytes (median) [5] [nM] |
| --- | --- | --- | --- | --- | --- | --- | --- | --- | --- | --- | --- | --- | --- | --- | --- | --- | --- |
| IL13433-1258 (trispecific antibody, Tri-Fab-Fc: SFab HC(3) IL-33, DFab LC(1)-HC(2) IL-13/IL-4, SFab LC(3), DFab LC(2), modified Fd(1); EE/RR, LS) heavy: EVQLVESGGGLVQPGGSLRLSCAASGFTFSSYWMYWVRQAPGKGLEWVAAITPNAGEDYYPESVKGRFTISRDNAKNSLYLQMNSLRAEDTAVYYCARGQYYYTKYSLGYWGQGTLVTVSSASTKGPSVFPLAPSSKSTSGGTAALGCLVKDYFPEPVTVSWNSGALTSGVHTFPAVLQSSGLYSLSSVVTVPSSSLGTQTYICNVNHKPSNTKVDKKVEPKSCRKTHTCPPCPAPEAAGAPSVFLFPPKPKDTLMISRTPEVTCVVVDVSHEDPEVKFNWYVDGVEVHNAKTKPREEQYNSTYRVVSVLTVLHQDWLNGKEYKCKVSNKALPAPIEKTISKAKGQPREPQVYTLPPSREEMTKNQVSLTCLVKGFYPSDIAVEWESNGQPENNYKTTPPVLDSDGSFFLYSRLTVDKSRWQQGNVFSCSVLHEALHSHYTQKSLSLSPGK chain 1: DIQMTQSPSSLSASVGDRVTITCKASESVDHFGWSLVHWYQQKPGKAPKLLIYRASNLESGVPSRFSGSGSGTDFTLTISSLQPEDFATYYCQQSNEDPWTFGGGTKVEIKRTVAAPSVFIFPPSDEQLKSGTASVVCLLNNFYPREAKVQWKVDNALQSGNSQESVTEQDSKDSTYSLSSTLTLSKADYEKHKVYACEVTHQGLSSPVTKSFNRGECGGGGSEVTLRESGPALVKPTQTLTLTCTFSGFSLSNFGEGLSWIRQPPGKGLEWLAHIYWDDDKRYNPSLKSRLTISKDTSRNQVVLTMTNMDPVDTATYYCARRETVFYWYFDVWGQGTTVTVSSASTKGPSVFPLAPSSKSTSGGTAALGCLVKDYFPEPVTVSWNSGALTSGVHTFPAVLQSSGLYSLSSVVTVPSSSLGTQTYICNVNHKPSNTKVDKKVEPKSCEKTHTCPPCPAPEAAGAPSVFLFPPKPKDTLMISRTPEVTCVVVDVSHEDPEVKFNWYVDGVEVHNAKTKPREEQYNSTYRVVSVLTVLHQDWLNGKEYKCKVSNKALPAPIEKTISKAKGQPREPQVYTLPPSREEMTKNQVSLTCEVKGFYPSDIAVEWESNGQPENNYKTTPPVLDSDGSFFLYSKLTVDKSRWQQGNVFSCSVLHEALHSHYTQKSLSLSPGK light 1: DIQMTQSPSSLSASVGDRVTITCRASQPIHNHLDWYQQKPGKAPKLLIYFGKNLQEGVPSRFSGSGSGTDFTLTISSLQPEDFATYYCFQYKKGWSFGGGTKVEIKRTVAAPSVFIFPPSDEQLKSGTASVVCLLNNFYPREAKVQWKVDNALQSGNSQESVTEQDSKDSTYSLSSTLTLSKADYEKHKVYACEVTHQGLSSPVTKSFNRGEC light 2: DIQMTQSPSSLSASVGDRVTITCRASQSVDEEGDSYMNWYQQKPGKAPKLLIYAASNLESGVPSRFSGSGSGTDFTLTISSLQPEDFATYYCQQSNKDPPTFGGGTKVEIKRTVAAPSVFIFPPSDEQLKSGTASVVCLLNNFYPREAKVQWKVDNALQSGNSQESVTEQDSKDSTYSLSSTLTLSKADYEKHKVYACEVTHQGLSSPVTKSFNRGEC chain 2: EVQLVESGGGLVQPGGSLRLSCAASGFTFSSYAMSWVRQAPGKGLEWVASISSGDTTYYPDSVKGRFTISRDNAKNSLYLQMNSLRAEDTAVYYCARNEGYYFGLTLWGQGTLVTVSSASTKGPSVFPLAPSSKSTSGGTAALGCLVKDYFPEPVTVSWNSGALTSGVHTFPAVLQSSGLYSLSSVVTVPSSSLGTQTYICNVNHKPSNTKVDKKVEPKSC | ≤ 2 | ~6.2 | ~4.5 | 7.9 | ~2.7 | ~10 | ~3.1 | no binding (tested: 200 nM) | no binding (tested: 200 nM) | no binding (tested: 200 nM) | no binding (tested: 200 nM) | no binding (tested: 200 nM) | no binding (tested: 200 nM) | – | – | – | – |
| IL413TSLP-1024 (antibody, RR-EE, LS; monovalent for TSLP) heavy: not shown light 1: SYVLTQPPSVSVAPGQTARITCGGNNLGSKSVHWYQQKPGQAPVLVVYDDKDRPSWIPERFSGSNSGNTATLTISRGEAGDEADYYCQVWDSKSDHVVFGGGTKLTVLGQPKAAPSVTLFPPSSEELQANKATLVCLISDFYPGAVTVAWKADSSPVKAGVETTTPSKQSNNKYAASSYLSLTPEQWKSHRSYSCQVTHEGSTVEKTVAPTECS chain 1: DIQMTQSPSSLSASVGDRVTITCKASESVDHFGWSLVHWYQQKPGKAPKLLIYRASNLESGVPSRFSGSGSGTDFTLTISSLQPEDFATYYCQQSNEDPWTFGGGTKVEIKRTVAAPSVFIFPPSDEQLKSGTASVVCLLNNFYPREAKVQWKVDNALQSGNSQESVTEQDSKDSTYSLSSTLTLSKADYEKHKVYACEVTHQGLSSPVTKSFNRGECGGGGSEVTLRESGPALVKPTQTLTLTCTFSGFSLSNFGEGLSWIRQPPGKGLEWLAHIYWDDDKRYNPSLKSRLTISKDTSRNQVVLTMTNMDPVDTATYYCARRETVFYWYFDVWGQGTTVTVSSASTKGPSVFPLAPSSKSTSGGTAALGCLVKDYFPEPVTVSWNSGALTSGVHTFPAVLQSSGLYSLSSVVTVPSSSLGTQTYICNVNHKPSNTKVDKKVEPKSCEKTHTCPPCPAPEAAGAPSVFLFPPKPKDTLMISRTPEVTCVVVDVSHEDPEVKFNWYVDGVEVHNAKTKPREEQYNSTYRVVSVLTVLHQDWLNGKEYKCKVSNKALPAPIEKTISKAKGQPREPQVYTLPPSREEMTKNQVSLTCEVKGFYPSDIAVEWESNGQPENNYKTTPPVLDSDGSFFLYSKLTVDKSRWQQGNVFSCSVLHEALHSHYTQKSLSLSPGK light 2: DIQMTQSPSSLSASVGDRVTITCRASQSVDEEGDSYMNWYQQKPGKAPKLLIYAASNLESGVPSRFSGSGSGTDFTLTISSLQPEDFATYYCQQSNKDPPTFGGGTKVEIKRTVAAPSVFIFPPSDEQLKSGTASVVCLLNNFYPREAKVQWKVDNALQSGNSQESVTEQDSKDSTYSLSSTLTLSKADYEKHKVYACEVTHQGLSSPVTKSFNRGEC chain 2: EVQLVESGGGLVQPGGSLRLSCAASGFTFSSYAMSWVRQAPGKGLEWVASISSGDTTYYPDSVKGRFTISRDNAKNSLYLQMNSLRAEDTAVYYCARNEGYYFGLTLWGQGTLVTVSSASTKGPSVFPLAPSSKSTSGGTAALGCLVKDYFPEPVTVSWNSGALTSGVHTFPAVLQSSGLYSLSSVVTVPSSSLGTQTYICNVNHKPSNTKVDKKVEPKSC | – | – | – | – | – | – | – | – | – | – | – | – | – | 0.00631 | 0.00303 | 0.0327 | 0.03 |
